{"source": "the supplement of paper PMC6757056", "parents": {"B1": {"name": "library; a variant is named by its letters at N, in order (parent)", "chain": "GCUGUCACCGGUGCUUGGUACGUUAUAUUCAGCCGGUCUGAUGAGUCUNNNNNNAGACGAAACAGC"}}, "key": {"(6R,S)-folinic acid [1]": {"variants_of": "B1", "assay": "FACS-Seq fitted mean relative fluorescence mCherry/BFP without ligand (log10 relative fluorescence); HEK293T overexpressing SLC46A1; higher = higher reporter protein expression", "details": "without (6R,S)-folinic acid; ligand present: no", "protocol": "(§1)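 Hammerhead (sTRSV) ribozyme switch libraries with a ligand aptamer grafted on stem I and a randomized N4-6 loop II, cloned into the 3' UTR of mCherry and transiently transfected into HEK293T cells; RNA-Seq 72 h post transfection with ligand added 1 h before transfection; RNA read count / plasmid DNA read count normalized to the non-cleaving sTRSVctl (x100), log10; sequences with >100 DNA reads. FACS-Seq: lentiviral library sorted into 6 bins after 48 h ligand, log-normal fit mean of mCherry/BFP scaled to controls. Printed sequences are partial switch sequences.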"}, "(6R,S)-folinic acid [2]": {"variants_of": "B1", "assay": "normalized RNA/DNA level without ligand (relative to sTRSVctl = 100) (log10 (% of sTRSVctl)); HEK293T overexpressing SLC46A1; higher = less ribozyme self-cleavage, higher mRNA level", "details": "without (6R,S)-folinic acid; ligand present: no", "protocol": "as §1"}, "(6R,S)-folinic acid [3]": {"variants_of": "B1", "assay": "FACS-Seq fitted mean relative fluorescence mCherry/BFP with ligand (log10 relative fluorescence); HEK293T overexpressing SLC46A1; ligand concentration (+) FACS-Seq: 6 mM; higher = higher reporter protein expression", "details": "with (6R,S)-folinic acid; ligand present: yes", "protocol": "as §1"}, "(6R,S)-folinic acid [4]": {"variants_of": "B1", "assay": "normalized RNA/DNA level with ligand (relative to sTRSVctl = 100) (log10 (% of sTRSVctl)); HEK293T overexpressing SLC46A1; ligand concentration (+) RNA-Seq: 6 mM; higher = less ribozyme self-cleavage, higher mRNA level", "details": "with (6R,S)-folinic acid; ligand present: yes", "protocol": "as §1"}}, "note": "± gives the standard deviation of the averaged measurements."}
{"variant": "GCUGUCACCGGUGCUUGGUACGUUAUAUUCAGCCGGUCUGAUGAGUCUGACCCUAGACGAAACAGC", "note": "[GACCCU]", "values": [{"measurement": "FACS-Seq fitted mean (log10)", "setting": "(6R,S)-folinic acid [1]", "result": "0.102 ± 0.065"}, {"measurement": "normalized RNA/DNA level without ligand (log10)", "setting": "(6R,S)-folinic acid [2]", "result": "2.065 ± 0.0032"}, {"measurement": "FACS-Seq fitted mean (log10)", "setting": "(6R,S)-folinic acid [3]", "result": "-0.257 ± 0.21"}, {"measurement": "normalized RNA/DNA level with ligand (log10)", "setting": "(6R,S)-folinic acid [4]", "result": "2.04 ± 0.035"}]}
{"variant": "GCUGUCACCGGUGCUUGGUACGUUAUAUUCAGCCGGUCUGAUGAGUCUAACCAUAGACGAAACAGC", "note": "[AACCAU]", "values": [{"measurement": "FACS-Seq fitted mean (log10)", "setting": "(6R,S)-folinic acid [1]", "result": "0.386 ± 0.012"}, {"measurement": "normalized RNA/DNA level without ligand (log10)", "setting": "(6R,S)-folinic acid [2]", "result": "1.976 ± 0.014"}, {"measurement": "FACS-Seq fitted mean (log10)", "setting": "(6R,S)-folinic acid [3]", "result": "0.303 ± 0.018"}, {"measurement": "normalized RNA/DNA level with ligand (log10)", "setting": "(6R,S)-folinic acid [4]", "result": "2 ± 0.057"}]}
{"variant": "GCUGUCACCGGUGCUUGGUACGUUAUAUUCAGCCGGUCUGAUGAGUCUAACCAGAGACGAAACAGC", "note": "[AACCAG]", "values": [{"measurement": "FACS-Seq fitted mean (log10)", "setting": "(6R,S)-folinic acid [1]", "result": "0.421 ± 0.13"}, {"measurement": "normalized RNA/DNA level without ligand (log10)", "setting": "(6R,S)-folinic acid [2]", "result": "1.966 ± 0.015"}, {"measurement": "FACS-Seq fitted mean (log10)", "setting": "(6R,S)-folinic acid [3]", "result": "0.407 ± 0.2"}, {"measurement": "normalized RNA/DNA level with ligand (log10)", "setting": "(6R,S)-folinic acid [4]", "result": "2.0092 ± 0.00083"}]}
{"variant": "GCUGUCACCGGUGCUUGGUACGUUAUAUUCAGCCGGUCUGAUGAGUCUUACCCGAGACGAAACAGC", "note": "[UACCCG]", "values": [{"measurement": "FACS-Seq fitted mean (log10)", "setting": "(6R,S)-folinic acid [1]", "result": "0.166 ± 0.063"}, {"measurement": "normalized RNA/DNA level without ligand (log10)", "setting": "(6R,S)-folinic acid [2]", "result": "1.92 ± 0.03"}, {"measurement": "FACS-Seq fitted mean (log10)", "setting": "(6R,S)-folinic acid [3]", "result": "0.279 ± 0.24"}, {"measurement": "normalized RNA/DNA level with ligand (log10)", "setting": "(6R,S)-folinic acid [4]", "result": "1.977 ± 0.0043"}]}
{"variant": "GCUGUCACCGGUGCUUGGUACGUUAUAUUCAGCCGGUCUGAUGAGUCUUACCGCAGACGAAACAGC", "note": "[UACCGC]", "values": [{"measurement": "FACS-Seq fitted mean (log10)", "setting": "(6R,S)-folinic acid [1]", "result": "0.235 ± 0.05"}, {"measurement": "normalized RNA/DNA level without ligand (log10)", "setting": "(6R,S)-folinic acid [2]", "result": "1.988 ± 0.017"}, {"measurement": "FACS-Seq fitted mean (log10)", "setting": "(6R,S)-folinic acid [3]", "result": "0.503 ± 0.22"}, {"measurement": "normalized RNA/DNA level with ligand (log10)", "setting": "(6R,S)-folinic acid [4]", "result": "1.99 ± 0.066"}]}
{"variant": "GCUGUCACCGGUGCUUGGUACGUUAUAUUCAGCCGGUCUGAUGAGUCUUACCGAAGACGAAACAGC", "note": "[UACCGA]", "values": [{"measurement": "FACS-Seq fitted mean (log10)", "setting": "(6R,S)-folinic acid [1]", "result": "0.3629 ± 0.0013"}, {"measurement": "normalized RNA/DNA level without ligand (log10)", "setting": "(6R,S)-folinic acid [2]", "result": "1.9669 ± 0.00083"}, {"measurement": "FACS-Seq fitted mean (log10)", "setting": "(6R,S)-folinic acid [3]", "result": "0.4406 ± 0.0022"}, {"measurement": "normalized RNA/DNA level with ligand (log10)", "setting": "(6R,S)-folinic acid [4]", "result": "2.04 ± 0.048"}]}
{"variant": "GCUGUCACCGGUGCUUGGUACGUUAUAUUCAGCCGGUCUGAUGAGUCUUACCACAGACGAAACAGC", "note": "[UACCAC]", "values": [{"measurement": "FACS-Seq fitted mean (log10)", "setting": "(6R,S)-folinic acid [1]", "result": "0.907 ± 0.028"}, {"measurement": "normalized RNA/DNA level without ligand (log10)", "setting": "(6R,S)-folinic acid [2]", "result": "1.971 ± 0.0041"}, {"measurement": "FACS-Seq fitted mean (log10)", "setting": "(6R,S)-folinic acid [3]", "result": "0.651 ± 0.047"}, {"measurement": "normalized RNA/DNA level with ligand (log10)", "setting": "(6R,S)-folinic acid [4]", "result": "1.994 ± 0.012"}]}
{"variant": "GCUGUCACCGGUGCUUGGUACGUUAUAUUCAGCCGGUCUGAUGAGUCUGACCAAAGACGAAACAGC", "note": "[GACCAA]", "values": [{"measurement": "FACS-Seq fitted mean (log10)", "setting": "(6R,S)-folinic acid [1]", "result": "0.358 ± 0.039"}, {"measurement": "normalized RNA/DNA level without ligand (log10)", "setting": "(6R,S)-folinic acid [2]", "result": "2.0328 ± 0.00084"}, {"measurement": "FACS-Seq fitted mean (log10)", "setting": "(6R,S)-folinic acid [3]", "result": "0.42 ± 0.074"}, {"measurement": "normalized RNA/DNA level with ligand (log10)", "setting": "(6R,S)-folinic acid [4]", "result": "2.03 ± 0.043"}]}
{"variant": "GCUGUCACCGGUGCUUGGUACGUUAUAUUCAGCCGGUCUGAUGAGUCUAACCCCAGACGAAACAGC", "note": "[AACCCC]", "values": [{"measurement": "FACS-Seq fitted mean (log10)", "setting": "(6R,S)-folinic acid [1]", "result": "0.581 ± 0.12"}, {"measurement": "normalized RNA/DNA level without ligand (log10)", "setting": "(6R,S)-folinic acid [2]", "result": "2.013 ± 0.0022"}, {"measurement": "FACS-Seq fitted mean (log10)", "setting": "(6R,S)-folinic acid [3]", "result": "0.492 ± 0.041"}, {"measurement": "normalized RNA/DNA level with ligand (log10)", "setting": "(6R,S)-folinic acid [4]", "result": "1.99 ± 0.045"}]}
{"variant": "GCUGUCACCGGUGCUUGGUACGUUAUAUUCAGCCGGUCUGAUGAGUCUCACCAUAGACGAAACAGC", "note": "[CACCAU]", "values": [{"measurement": "FACS-Seq fitted mean (log10)", "setting": "(6R,S)-folinic acid [1]", "result": "0.138 ± 0.12"}, {"measurement": "normalized RNA/DNA level without ligand (log10)", "setting": "(6R,S)-folinic acid [2]", "result": "1.9842 ± 0.00094"}, {"measurement": "FACS-Seq fitted mean (log10)", "setting": "(6R,S)-folinic acid [3]", "result": "0.347 ± 0.13"}, {"measurement": "normalized RNA/DNA level with ligand (log10)", "setting": "(6R,S)-folinic acid [4]", "result": "2 ± 0.011"}]}
{"variant": "GCUGUCACCGGUGCUUGGUACGUUAUAUUCAGCCGGUCUGAUGAGUCUAACCGGAGACGAAACAGC", "note": "[AACCGG]", "values": [{"measurement": "FACS-Seq fitted mean (log10)", "setting": "(6R,S)-folinic acid [1]", "result": "0.00166 ± 0.089"}, {"measurement": "normalized RNA/DNA level without ligand (log10)", "setting": "(6R,S)-folinic acid [2]", "result": "2.032 ± 0.0087"}, {"measurement": "FACS-Seq fitted mean (log10)", "setting": "(6R,S)-folinic acid [3]", "result": "-0.0748 ± 0.11"}, {"measurement": "normalized RNA/DNA level with ligand (log10)", "setting": "(6R,S)-folinic acid [4]", "result": "2.04 ± 0.033"}]}
